Consider two proteins from paper PMC3056663, “A Bi-Functional Anti-Thrombosis Protein Containing Both Direct-Acting Fibrin(ogen)olytic and Plasminogen-Activating Activities” (PLoS ONE, 2011).

Substrate in the data set: N=C(N)NCCC[C@H](NC(=O)c1ccccc1)C(=O)Nc1ccc([N+](=O)[O-])cc1
In words: purified protein. The conditions noted are these: 50 mM Tris-HCl, pH 7.8, 37°C. Type of data set: biochemical, Eupolyphaga sinensis.

B1: native eupolytin1 (NE) (Eupolyphaga sinensis) (protein)
chain: RIVGGSDANIEDLPYQLSFEYGGSHMCGASIISENWVVTAAHCVDGVSASSARFRAGSSVRGSGGSLHQATQLIANPQYDYYTIDYDVAVARVATPFSYGSGVQPISLISVEPSAGQTATVSGWGTFFSGGSLPRQLQVVSVPIVSPQQCNNDYASYGGITENMICAAEEQGGKDPCQGDSSGPLTVGGQLAGIVSWGAGCAQRGYPGVYSNVATLRKFITDETGVN
notes: mature protein of 227 residues, 27-residue signal peptide removed (precursor 254); purified natively from mid-gut; 26 kDa on SDS-PAGE
B1: the Km (in general, the substrate concentration at which the rate is half of its maximum) came out at 3.24 mM; the Vmax – broadly, the rate approached at saturating substrate – stood at 63000 µM/min; the kcat/Km (as a rule, the second-order rate constant that governs catalysis at low substrate concentration) was 1e+07 M⁻¹ s⁻¹.

B2: recombinant eupolytin1 (RE) (Eupolyphaga sinensis) (protein)
chain: IVGGSDANIEDLPYQLSFEYGGSHMCGASIISENWVVTAAHCVDGVSASSARFRAGSSVRGSGGSLHQATQLIANPQYDYYTIDYDVAVARVATPFSYGSGVQPISLISVEPSAGQTATVSGWGTFFSGGSLPRQLQVVSVPIVSPQQCNNDYASYGGITENMICAAEEQGGKDPCQGDSSGPLTVGGQLAGIVSWGAGCAQRGYPGVYSNVATLRKFITDETGVN
notes: tag released by enterokinase; primer encodes DDDDK-IVGG at the cleavage site; Mono Q purified
In the case of B2, the Km came to 3.01 mM, the Vmax worked out at 67200 µM/min and the kcat/Km came out at 8e+06 M⁻¹ s⁻¹.
